Experimental data: US20250289897A1, “LEPTIN RECEPTOR AGONISTIC ANTIBODY AS MONO OR COMBO THERAPIES TO TREAT OBESITY” (ELI LILLY AND COMPANY, priority 2024, published 2025)

How the values were obtained:
[1] = target: neonatal Fc receptor (FcRn) on FcRn Affinity Column Gen2 (Roche, Cat #09430857001) (UniProt P55899); test: FcRn-HPLC (Roche FcRn Affinity Column Gen2), pH gradient 5.5 to 8.8 over 90 minutes
[2] = target: human FcγRI (CD64) extracellular domain (human) (UniProt P12314); test: SPR at 25 C (Biacore T200), antibody captured on Protein A chip, FcγR ECD as analyte; average of 3, SD 1.3
[3] = target: human FcγRIIA_131H (CD32a) extracellular domain (human) (UniProt P12318); test: SPR at 25 C (Biacore T200), antibody captured on Protein A chip, FcγR ECD as analyte, steady state; average of 3, SD 0.01
[4] = target: human FcγRIIA_131R (CD32a) extracellular domain (human) (UniProt P12318); test: as above
[5] = target: human FcγRIIIA_158F (CD16a) extracellular domain (human) (UniProt P08637); test: SPR at 25 C (Biacore T200), antibody captured on Protein A chip, FcγR ECD as analyte, steady state; average of 3, SD 0.02
[6] = target: human LEPR, full length, on HEK293-STAT3Luc-hLepR1 cells (Homo sapiens) (UniProt P48357); test: cell-based or functional assay
[7] = target: human LEPR, full length, on HEK293-STAT3Luc-hLepR1 cells (Homo sapiens) (UniProt P48357); test: flow cytometry on live HEK293-STAT3Luc-hLepR1 cells, AF647 anti-human IgG; average of 4 runs
[8] = target: cynomolgus monkey LEPR, full length, on HEK293-STAT3Luc-cmLepR2 cells (Macaca fascicularis); test: flow cytometry on live HEK293-STAT3Luc-cmLepR2 cells, AF647 anti-human IgG; average of 4 runs
[9] = target: cynomolgus monkey LEPR, full length, on HEK293-STAT3Luc-cmLepR2 cells (Macaca fascicularis); test: flow cytometry on live HEK293-STAT3Luc-cmLepR2 cells, AF647 anti-human IgG; average of 4 runs, SD 0, R^2 0.60
[10] = target: human LEPR, full length, on HEK293-STAT3Luc-hLepR1 cells (Homo sapiens) (UniProt P48357); test: flow cytometry on live HEK293-STAT3Luc-hLepR1 cells, AF647 anti-human IgG; average of 4 runs, SD 331, R^2 0.50
[11] = target: neonatal Fc receptor (FcRn) on FcRn Affinity Column Gen2 (Roche, Cat #09430857001) (UniProt P55899); test: FcRn-HPLC (Roche FcRn Affinity Column Gen2), peak width at 50% peak height
[12] = target: Mutant human LEPR-A409E, on HEK293 STAT3-Luciferase reporter cells (human) (UniProt P48357); test: cell-based or functional assay
Mutant human LEPR-A409E, on HEK293 STAT3-Luciferase reporter cells (human), sequence (P48357 22-1165 A409E limits assumed): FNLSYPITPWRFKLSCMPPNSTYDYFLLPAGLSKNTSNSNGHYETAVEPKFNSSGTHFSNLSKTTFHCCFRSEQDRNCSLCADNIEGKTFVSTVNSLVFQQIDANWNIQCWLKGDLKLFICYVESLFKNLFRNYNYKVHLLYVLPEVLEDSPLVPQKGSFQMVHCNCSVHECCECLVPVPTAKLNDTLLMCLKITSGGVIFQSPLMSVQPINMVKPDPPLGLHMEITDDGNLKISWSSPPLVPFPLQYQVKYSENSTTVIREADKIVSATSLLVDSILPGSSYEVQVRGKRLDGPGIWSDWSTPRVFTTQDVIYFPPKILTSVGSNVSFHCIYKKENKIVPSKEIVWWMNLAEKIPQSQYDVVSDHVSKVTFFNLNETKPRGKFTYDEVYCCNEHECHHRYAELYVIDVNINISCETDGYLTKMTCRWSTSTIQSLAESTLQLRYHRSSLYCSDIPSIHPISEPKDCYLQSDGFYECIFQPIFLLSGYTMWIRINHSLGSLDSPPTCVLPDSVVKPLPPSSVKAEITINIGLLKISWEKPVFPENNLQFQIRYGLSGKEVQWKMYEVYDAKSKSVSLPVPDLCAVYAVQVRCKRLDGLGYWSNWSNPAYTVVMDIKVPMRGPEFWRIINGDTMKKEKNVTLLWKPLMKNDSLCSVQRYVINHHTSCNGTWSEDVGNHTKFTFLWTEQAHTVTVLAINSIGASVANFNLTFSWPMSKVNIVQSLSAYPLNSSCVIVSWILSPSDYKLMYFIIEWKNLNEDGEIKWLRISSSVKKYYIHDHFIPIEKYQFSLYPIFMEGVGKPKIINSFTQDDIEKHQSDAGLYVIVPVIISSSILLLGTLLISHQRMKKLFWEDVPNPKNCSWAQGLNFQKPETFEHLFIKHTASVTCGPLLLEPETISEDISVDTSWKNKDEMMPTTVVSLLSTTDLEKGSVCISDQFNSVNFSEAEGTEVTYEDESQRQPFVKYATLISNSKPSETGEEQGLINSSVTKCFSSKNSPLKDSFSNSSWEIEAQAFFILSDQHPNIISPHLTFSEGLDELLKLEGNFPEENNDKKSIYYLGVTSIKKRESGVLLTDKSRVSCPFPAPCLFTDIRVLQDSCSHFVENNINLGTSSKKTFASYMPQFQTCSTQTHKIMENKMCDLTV

neonatal Fc receptor (FcRn) on FcRn Affinity Column Gen2 (Roche, Cat #09430857001), sequence (P55899 24-297 limits assumed, chain 1 of 2): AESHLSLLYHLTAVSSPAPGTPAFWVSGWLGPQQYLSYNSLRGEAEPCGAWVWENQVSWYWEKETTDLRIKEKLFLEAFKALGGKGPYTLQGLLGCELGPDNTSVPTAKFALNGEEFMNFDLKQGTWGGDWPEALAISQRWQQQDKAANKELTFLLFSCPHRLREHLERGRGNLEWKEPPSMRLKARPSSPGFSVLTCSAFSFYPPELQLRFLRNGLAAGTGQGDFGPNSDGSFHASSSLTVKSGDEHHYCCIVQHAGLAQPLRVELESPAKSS
neonatal Fc receptor (FcRn) on FcRn Affinity Column Gen2 (Roche, Cat #09430857001), sequence (P61769 21-119 limits assumed, chain 2 of 2, further chain): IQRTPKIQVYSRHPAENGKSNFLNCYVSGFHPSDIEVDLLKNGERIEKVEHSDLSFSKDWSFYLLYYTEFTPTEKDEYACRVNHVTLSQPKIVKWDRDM
human LEPR, full length, on HEK293-STAT3Luc-hLepR1 cells (Homo sapiens), sequence (P48357 22-1165 limits assumed): as the sequence (P48357 22-1165 A409E limits assumed) above, with E388A counted along it
human FcγRI (CD64) extracellular domain (human), sequence (P12314 16-292): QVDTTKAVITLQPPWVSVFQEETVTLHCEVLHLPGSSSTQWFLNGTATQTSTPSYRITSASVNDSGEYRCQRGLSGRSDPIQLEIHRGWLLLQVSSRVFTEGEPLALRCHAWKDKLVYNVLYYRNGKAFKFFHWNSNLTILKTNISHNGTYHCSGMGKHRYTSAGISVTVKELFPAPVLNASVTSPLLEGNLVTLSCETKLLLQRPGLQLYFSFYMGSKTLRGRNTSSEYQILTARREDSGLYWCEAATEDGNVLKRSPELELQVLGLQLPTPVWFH
human FcγRIIA_131R (CD32a) extracellular domain (human), sequence (P12318 34-217 H167R): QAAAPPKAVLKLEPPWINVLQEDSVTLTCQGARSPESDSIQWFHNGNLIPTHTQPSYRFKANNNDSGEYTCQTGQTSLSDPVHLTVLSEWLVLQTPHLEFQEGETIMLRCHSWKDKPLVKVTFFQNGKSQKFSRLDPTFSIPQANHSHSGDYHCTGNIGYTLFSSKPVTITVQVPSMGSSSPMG
human FcγRIIIA_158F (CD16a) extracellular domain (human), sequence (P08637 17-208): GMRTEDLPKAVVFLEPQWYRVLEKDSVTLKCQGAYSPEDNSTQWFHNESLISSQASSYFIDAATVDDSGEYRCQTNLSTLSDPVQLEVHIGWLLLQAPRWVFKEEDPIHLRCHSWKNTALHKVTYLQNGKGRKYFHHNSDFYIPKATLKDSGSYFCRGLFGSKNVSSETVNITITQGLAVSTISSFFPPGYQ
human FcγRIIA_131H (CD32a) extracellular domain (human), sequence (P12318 34-217): as the sequence (P12318 34-217 H167R) above, with R134H counted along it

Question: With Briakinumab (antibody) as the substance, how does the Retention Time [1] read?
Answer: 88.9 min

Question: What does the source list for IgG1 positive control (antibody)?
Answer: Kd [2]: 0.0619 nM; Kd [3]: 520 nM; Kd [4]: 530 nM; Kd [5]: 860 nM

Question: What does the source list for IgG Isotype control (antibody)?
Answer: Maximum RLU, pERK1/2 AlphaLISA (baseline 29762.5) [6]: 27300 RLU; Bottom (gMFI) [7]: 148 gMFI; Top (gMFI) [7]: 293 gMFI; Bottom (gMFI) [8]: 69 gMFI; Top (gMFI) [8]: 131 gMFI; EC50 [9]: 727 nM; EC50 [10]: 409 nM

Question: What does the source list for Ustekinumab (antibody)?
Answer: Peak Width [11]: 1.9 min; Retention Time [1]: 69.4 min

Question: For “recombinant human leptin protein (SEQ ID NO:27) (from UniProt P41159 22-167) (ligand)”, which Top (RLU), STAT3-luciferase reporter (projected by the fitting software) [12] is on record?
Answer: 259000 RLU

Question: What about the Maximum RLU, pERK1/2 AlphaLISA (baseline 29762.5) [6] of the same substance?
Answer: 138000 RLU
